Target: acetylcholine receptor
Test: SPR, AchR on chip, peptide 10 uM

Binder	Binding affinity (RU)
KRIQR [5mer-325]	50

Target: acetylcholine receptor
Test: SPR, AchR immobilised on chip, peptide 10 uM

Binder	Binding affinity (RU)
KDKPR [5mer-799]	24
KFCIR [5mer-808]	13
KHWHR [5mer-818]	12
KKAGR [5mer-827]	18
KEAPR [5mer-800]	29
KTHKK [5mer-1102]	20
RMDAR [5mer-1118]	28
RFCWR [5mer-828]	27
RNPIR [5mer-1108]	19
RFMMR [5mer-835]	14
KMTMR [5mer-811]	32
REWVR [5mer-1128]	26
RITVR [5mer-802]	27
RFMVR [5mer-1130]	17
RATAR [5mer-1099]	14
KYKNR [5mer-1101]	11
KFDAR [5mer-1129]	14
RHKIR [5mer-1117]	11
REWNR [5mer-836]	15
RIADR [5mer-1127]	16
KPTHK [5mer-1126]	26
RMNIK [5mer-834]	15
KMNIK [5mer-1119]	19
RPTNR [5mer-805]	27
RPMDR [5mer-837]	28
KFHKK [5mer-810]	11

Binder	Binding affinity (RU)
KFHGR [5mer-801]	20
KYEKR [5mer-1123]	24
RFKVK [5mer-1121]	29
RKPIK [5mer-816]	26
RYTER [5mer-1106]	18
RPWHK [5mer-1107]	21
KFSMK [5mer-1132]	19
KATAK [5mer-833]	33
RITMR [5mer-814]	11
RNTIR [5mer-804]	20
KTEGR [5mer-812]	27
RAKGK [5mer-822]	16
KECFR [5mer-1116]	24
KCDGK [5mer-1131]	14
RPPDR [5mer-1120]	33
KCHPK [5mer-1109]	14
RDEKK [5mer-825]	14
KAEHK [5mer-1111]	12
RYPFK [5mer-1125]	29
KEEEK [5mer-1137]	22
KCSMK [5mer-1133]	23
RIMHK [5mer-820]	28
RHTAR [5mer-1135]	17
KCWHR [5mer-829]	26
RNTIK [5mer-819]	19
RAAGK [5mer-831]	24

Binder	Binding affinity (RU)
RKNKK [5mer-807]	20
KECFK [5mer-823]	26
RNTDR [5mer-1122]	14
RPWKR [5mer-1100]	24
KCKMK [5mer-826]	11
RKTFR [5mer-1114]	28
RFSDR [5mer-803]	11
RHKDR [5mer-817]	23
KIDMK [5mer-824]	13
RAHVR [5mer-813]	21
RHMER [5mer-1113]	19
KKPVK [5mer-1124]	30
RIDGK [5mer-830]	25
RKMFR [5mer-806]	17
RTTFK [5mer-1112]	29
RKDHR [5mer-815]	27
RMHMK [5mer-1110]	13
RKSGK [5mer-809]	15
RPTKR [5mer-1105]	33
KNSAR [5mer-1136]	25
KEPEK [5mer-1115]	27
RTCKR [5mer-1134]	26
RESDR [5mer-821]	12
RMHER [5mer-832]	18
RETHK [5mer-1104]	12
KKSHR [5mer-1103]	18

Source: patent US20250011363A1, “OPTIMIZED SHORTENED PEPTIDE THAT BINDS TO ACETYLCHOLINE RECEPTOR, AND USE THEREOF” (SKINMED CO., LTD., priority 2021, published 2025)
